According to US11360100B2, “Methods and compositions useful in detecting proteins” (OREGON HEALTH & SCIENCE UNIVERSITY, priority 2016, dated 2022):
Entries after “also recorded” stand apart in the source; their conditions may differ. Cy5 = Cy5 cyanine dye

Tests used:
CoilY-mCherry = test: SDS-PAGE/PVDF membrane labeling of transfected HEK293FT lysates, CoilY-mCherry; format: binding; conditions: cell lysates, SDS-PAGE, PVDF membrane
Description: The CoilY and CoilZ pair could be used to label two protein targets simultaneously. Transfected HEK293FT cell lysates from cells expressing mCherry, CoilY-mCherry, EGFP, or CoilZ-EGFP were resolved by SDS-PAGE and transferred to a PVDF membrane. The membrane was incubated sequentially with CoilZ-fluorescein and CoilY-rhodamine before imaging. GFP and mCherry fluorescence was not preserved due to SDS-PAGE protein denaturation.
(§1) A protein gel-based assay was optimized for analyzing VIP tags in vitro. Cell lysates were made from cells transfected with mCherry, CoilY-mCherry, GFP, or CoilZ-GFP, resolved by SDS-PAGE, and transferred to a membrane. GFP and mCherry fluorescence were not preserved in this experiment. The membrane was then contacted with CoilZ-fluorescein and CoilY-rhodamine before imaging. […] The probe peptides were specific for each tagged protein, and this single pair enabled specific and selective protein tagging of two distinct targets. In addition both the VIP E/R and VIP Y/Z tag sets could be used concurrently to label two recombinant proteins (DHFR and mCherry) without crosstalk (FIG. 23).

[1] = system: untagged mCherry and DHFR; test: SDS-PAGE/PVDF membrane labeling, untagged proteins; format: binding; conditions: lysates and purified proteins, PVDF membrane
Description: Crude lysates (lys.) and purified proteins (serial dilutions) were resolved by SDS-PAGE. Lysates were prepared from HERK 293FT cells transfected with mCherry, CoilY-mCherry, DHFR, and CoilE-DHFR. The protein gel was transferred to a PVDF membrane and then incubated with CoilZ-Fluorescein and CoilR-rhodamine. After washing, the membrane was imaged to detect VIPER labeling of DHFR (red) and VIP Y/Z labeling of mCherry (green). Untagged proteins were not labeled by either CoilR-rhodamine or CoilZ-fluorescein.
as §1

His6-CoilY-mCherry = test: Detection limit comparison on PVDF membrane (peptide vs immunolabeling); format: binding; conditions: serial dilutions 400 ng to 0.8 ng
Description: FIG. 10 is a detection limit comparison between peptide and immunolabeling. Serial dilutions of CoilY-mCherry (400 ng to 0.8 ng) were run on two identical SDS-PAGE gels before transfer to a PVDF membrane. The first membrane (top) was treated with CoilZ-fluorescein (CoilZ-FL) and imaged (ex 475/42 nm; em 537/35 nm). The second membrane (bottom) was labeled using an AF488-conjugated anti-His antibody “AF488-His” (QIAGEN, product number 35310) and imaged (475/42 nm excitation, 537/35 nm emission).
The disclosed method is a sensitive alternative to fluorescent immunoblotting. Purified His6-CoilY-mCherry was generated and the sensitivity of detection of the His6-CoilY-mCherry using our CoilZ-fluorescein was compared to that of an AF488-labeled anti-His antibody from Qiagen. CoilZ-fluorescein could detect as little as 3 ng of His6-CoilY-mCherry, while the antibody required 8-fold more target protein (FIG. 10).
Specifically, purified His6-mCherry and His6-CoilY-mCherry were loaded on a 10% SDS-PAGE gel for separation. Electrophoresis occurred at 165 V for 1 h. […]
Decreasing quantities of purified CoilY-mCherry (400 ng to 0.8 ng) were resolved by SDS-PAGE and transferred to a PVDF membrane. […] CoilY-mCherry was detected by blotting with anti-pentahistidine mouse antibody conjugated to AlexaFluor488 (1:5000, QIAGEN; product number 35310). […]

[2] = system: untagged mEmerald constructs; test: VIPER labeling of fixed, permeabilized U-2 OS cells, untagged constructs; format: cell-based; conditions: 100 nM probe, same acquisition settings
Description: The CoilE and CoilR peptides were assessed for their ability to label intracellular structures without perturbing normal trafficking and distribution of the tagged proteins. U-2 OS cells were transfected with mEmerald-actin-C18, mEmerald-CoilE-actin-C18, H2B-6-mEmerald, H2B-6-CoilE-mEmerald, Mito-7-mEmerald, and Mito-7-CoilE-mEmerald and fixed with 4% PFA 24 hours after transfection. Cells were then lightly permeabilized and then labeled with 100 nM CoilR-Cy5 in a blocking buffer. Cells were fixed and imaged using with line-scanning confocal microscope. […] VIPER labeling was specific, given by the colocalization of features between the VIPER(Cy5) and mEmerald signal.

untagged TfR1 = biological target: T1, untagged TfR1 (Homo sapiens, UniProt P02786); test: CoilR probe labeling of CHO TRVb cells expressing untagged TfR1; format: cell-based; conditions: labeled at 4° C.
T1 construct: expressed in transfected cells; host or cells: CHO TRVb
T1 sequence (P02786 whole entry): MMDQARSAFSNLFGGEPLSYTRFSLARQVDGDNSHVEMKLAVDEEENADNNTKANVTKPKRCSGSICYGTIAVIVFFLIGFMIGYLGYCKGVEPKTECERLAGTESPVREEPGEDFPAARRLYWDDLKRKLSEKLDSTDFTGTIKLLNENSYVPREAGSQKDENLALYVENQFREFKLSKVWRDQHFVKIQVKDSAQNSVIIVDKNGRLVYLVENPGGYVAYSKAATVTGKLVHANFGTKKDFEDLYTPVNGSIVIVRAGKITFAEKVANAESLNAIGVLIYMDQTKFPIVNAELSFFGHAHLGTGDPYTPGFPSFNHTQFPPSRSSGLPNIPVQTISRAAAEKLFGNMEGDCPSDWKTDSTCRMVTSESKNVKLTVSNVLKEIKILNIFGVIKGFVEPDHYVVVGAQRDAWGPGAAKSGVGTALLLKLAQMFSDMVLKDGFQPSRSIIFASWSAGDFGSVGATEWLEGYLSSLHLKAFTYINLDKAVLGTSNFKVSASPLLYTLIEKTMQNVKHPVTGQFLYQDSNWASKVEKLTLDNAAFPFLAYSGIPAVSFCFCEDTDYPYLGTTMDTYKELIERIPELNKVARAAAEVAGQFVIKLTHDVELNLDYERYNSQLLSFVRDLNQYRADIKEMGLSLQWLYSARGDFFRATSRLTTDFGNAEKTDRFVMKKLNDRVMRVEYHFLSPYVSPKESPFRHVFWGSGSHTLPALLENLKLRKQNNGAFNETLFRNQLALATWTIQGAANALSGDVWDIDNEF

CoilY-mCherry, sequence (as listed by the source): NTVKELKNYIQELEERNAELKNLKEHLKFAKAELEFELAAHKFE
His6-CoilY-mCherry, sequence (as listed by the source): as above

B1: CoilZ-fluorescein: green fluorescent CoilZ probe peptide, maleimide conjugate (conjugate)
peptide: MGSSQKVAQLKNRVAYKLKENAKLENIVARLENDNANLEKDIANLEKDIANLERDVARGGGAAACLGKLAAALEHHHHHH
- probe peptide binding to CoilY-mCherry on membrane (CoilY-mCherry): specific coiled-coil heterodimer formation could be detected; also recorded: Probe peptide binding was detected
- labeling of untagged proteins on membrane [1]: not labeled
- least amount of His6-CoilY-mCherry detected (His6-CoilY-mCherry): 3 ng

B2: CoilR-Cy5: CoilR probe peptide conjugated to Cy5 (conjugate)
peptide: MGGSLEIRAAFLRQRNTALRTEVAELEQEVQRLENEVSQYETRYGPLGGGAAALGC(Cy5)LAAALEHHHHHH
- Cy5 signal in cells expressing untagged mEmerald constructs [2]: no significant Cy5 signal
- labeling of cells expressing untagged TfR1 (untagged TfR1): no CoilR-Cy5 signal; also recorded: showed now labeling
